Test results as given in patent US20240376151A1, “STAPLED PEPTIDES AND METHODS THEREOF” (FOG PHARMACEUTICALS, INC., priority 2022, published 2024).
Numbered stars: 1 amine (or outer) side, 2 acyl side, 3 side chain; on linkers, the order of the positions; unused ones are H or OH. Bridge positions count the residues as written; N and C are the ends. Ends that are not written are not given here. Phenylene(1,4-NHCOCH2)2 = O=C(C[*:1])Nc1ccc(NC(=O)C[*:2])cc1

Biological target: T1, CHIP (Homo sapiens, UniProt Q9UNE7)
T1 construct: N-term truncated CHIP (also known as STUB1, Uniprot ID: Q9UNE7, residues 23-303); made in house; host or cells: E. coli BL21 CodonPlus
T1 sequence (Q9UNE7 23-303): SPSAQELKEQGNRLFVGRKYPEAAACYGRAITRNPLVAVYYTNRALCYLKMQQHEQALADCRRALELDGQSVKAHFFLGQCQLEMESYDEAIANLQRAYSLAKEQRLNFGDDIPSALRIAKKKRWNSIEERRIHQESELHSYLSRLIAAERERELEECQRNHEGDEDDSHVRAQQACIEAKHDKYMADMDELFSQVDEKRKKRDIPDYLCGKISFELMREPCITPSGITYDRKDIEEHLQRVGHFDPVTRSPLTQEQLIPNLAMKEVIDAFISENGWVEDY
Assay: Naive Library Presenter Screening (phage, NGS), CHIP
Assay type: binding
Details: for interaction data, BLANK: Blank = Media only
Experimental: To conduct phage library screening, previously described procedures were utilized in accordance with the present disclosure.
Next-generation sequencing was performed as described in accordance with the present disclosure.
Hit ID and Clustering is performed according to a described procedure in accordance with the present disclosure.

[1] = CHIP clusters (C83, C84), first column
[2] = CHIP clusters (C83, C84), second column
[3] = CHIP clusters (C83, C84), target concentration 10 nM
[4] = CHIP clusters (C83, C84), target concentration 30 nM
[5] = CHIP clusters (C83, C84), target concentration 100 nM
[6] = CHIP clusters (C83, C84), target concentration 300 nM
[7] = CHIP clusters (C83, C84), target concentration 1000 nM, first column
[8] = CHIP clusters (C83, C84), target concentration 1000 nM, second column
[9] = CHIP target concentration 10 nM
[10] = CHIP target concentration 30 nM
[11] = CHIP target concentration 100 nM
[12] = CHIP target concentration 300 nM
[13] = CHIP target concentration 1000 nM, first column
[14] = CHIP target concentration 1000 nM, second column

For “DPAFTACQFAAAMCDSS (linker 7-14 via Phenylene(1,4-NHCOCH2)2 (inferred))”, the “interaction data, BLANK” value [1] was 0, the “interaction data, BLANK” value [2] was 0 and the “interaction data at Target Concentration 10” value [3] was 0. For the same sequence, the “interaction data at Target Concentration 30” value [4] was 0, the “interaction data at Target Concentration 100” value [5] was 0 and the “interaction data at Target Concentration 300” value [6] was 3. The “interaction data at Target Concentration 1000” value [7] was 8 and the “interaction data at Target Concentration 1000” value [8] was 5.

In the case of “DPALWNCQYAAVMCTQL (linker 7-14 via Phenylene(1,4-NHCOCH2)2 (inferred); not fully specified (C-terminus))”, the “interaction data, BLANK” value [1] is reported as 0, the “interaction data, BLANK” value [2] is reported as 0 and the “interaction data at Target Concentration 10” value [3] is reported as 0. For the same sequence, the “interaction data at Target Concentration 30” value [4] was 0, the “interaction data at Target Concentration 100” value [5] was 0 and the “interaction data at Target Concentration 300” value [6] was 14. The “interaction data at Target Concentration 1000” value [7] was 34 and the “interaction data at Target Concentration 1000” value [8] was 75.

“DPANHICHYAAHICDVD (DPANHICHYAAHICDVD-NH2; linker 7-14 via Phenylene(1,4-NHCOCH2)2 (inferred))” was tested, and the “interaction data, BLANK” value [1] was 0, the “interaction data, BLANK” value [2] was 0 and the “interaction data at Target Concentration 10” value [3] was 0. For the same sequence, the “interaction data at Target Concentration 30” value [4] was 0, the “interaction data at Target Concentration 100” value [5] was 3 and the “interaction data at Target Concentration 300” value [6] was 15. The “interaction data at Target Concentration 1000” value [7] was 6 and the “interaction data at Target Concentration 1000” value [8] was 49.

“DPAFDACQFAAAMCDHQ (linker 7-14 via Phenylene(1,4-NHCOCH2)2 (inferred))” was tested, and the “interaction data, BLANK” value [1] was 0, the “interaction data, BLANK” value [2] was 0 and the “interaction data at Target Concentration 10” value [3] was 0. For the same sequence, the “interaction data at Target Concentration 30” value [4] was 30, the “interaction data at Target Concentration 100” value [5] was 23 and the “interaction data at Target Concentration 300” value [6] was 39. For the same sequence, the “interaction data at Target Concentration 1000” value [7] was 80 and the “interaction data at Target Concentration 1000” value [8] was 248.

With “DPAFERCQLAAAFCYDS (linker 7-14 via Phenylene(1,4-NHCOCH2)2 (inferred))” the “interaction data, BLANK” value [1] was 0, the “interaction data, BLANK” value [2] was 0 and the “interaction data at Target Concentration 10” value [3] was 0. For the same sequence, the “interaction data at Target Concentration 30” value [4] was 0, the “interaction data at Target Concentration 100” value [5] was 2 and the “interaction data at Target Concentration 300” value [6] was 15. For the same sequence, the “interaction data at Target Concentration 1000” value [7] was 60 and the “interaction data at Target Concentration 1000” value [8] was 47.

In the case of “DPAIIWCSQAASICTVD (linker 7-14 via Phenylene(1,4-NHCOCH2)2 (inferred))”, the “interaction data, BLANK” value [1] is reported as 0, the “interaction data, BLANK” value [2] is reported as 0 and the “interaction data at Target Concentration 10” value [3] is reported as 0. The “interaction data at Target Concentration 30” value [4] was 0, the “interaction data at Target Concentration 100” value [5] was 19 and the “interaction data at Target Concentration 300” value [6] was 15. For the same sequence, the “interaction data at Target Concentration 1000” value [7] was 23 and the “interaction data at Target Concentration 1000” value [8] was 24.

For “DPASQWCQRAASICWID (DPASQWCQRAASICWID-NH2; linker 7-14 via Phenylene(1,4-NHCOCH2)2 (inferred))”, the “interaction data, BLANK” value [1] was 0, the “interaction data, BLANK” value [2] was 0 and the “interaction data at Target Concentration 10” value [3] was 0. The “interaction data at Target Concentration 30” value [4] was 0, the “interaction data at Target Concentration 100” value [5] was 0 and the “interaction data at Target Concentration 300” value [6] was 15. The “interaction data at Target Concentration 1000” value [7] was 18 and the “interaction data at Target Concentration 1000” value [8] was 8.

With “DPAQDNCHYAAHICMVD (DPAQDNCHYAAHICMVD-NH2; linker 7-14 via Phenylene(1,4-NHCOCH2)2 (inferred))” the “interaction data, BLANK” value [1] was 0, the “interaction data, BLANK” value [2] was 0 and the “interaction data at Target Concentration 10” value [3] was 0. For the same sequence, the “interaction data at Target Concentration 30” value [4] was 0, the “interaction data at Target Concentration 100” value [5] was 0 and the “interaction data at Target Concentration 300” value [6] was 47. The “interaction data at Target Concentration 1000” value [7] was 25 and the “interaction data at Target Concentration 1000” value [8] was 57.

With “DPAFWSCQFAAATCSHL (linker 7-14 via Phenylene(1,4-NHCOCH2)2 (inferred))” the “interaction data, BLANK” value [1] was 0, the “interaction data, BLANK” value [2] was 0 and the “interaction data at Target Concentration 10” value [3] was 0. The “interaction data at Target Concentration 30” value [4] was 0, the “interaction data at Target Concentration 100” value [5] was 4 and the “interaction data at Target Concentration 300” value [6] was 6. For the same sequence, the “interaction data at Target Concentration 1000” value [7] was 11 and the “interaction data at Target Concentration 1000” value [8] was 8.

For “DPAMWHCQYAAIMCNAN (DPAMWHCQYAAIMCNAN-NH2; linker 7-14 via Phenylene(1,4-NHCOCH2)2 (inferred))”, the “interaction data, BLANK” value [1] was 0, the “interaction data, BLANK” value [2] was 0 and the “interaction data at Target Concentration 10” value [3] was 0. For the same sequence, the “interaction data at Target Concentration 30” value [4] was 0, the “interaction data at Target Concentration 100” value [5] was 0 and the “interaction data at Target Concentration 300” value [6] was 15. The “interaction data at Target Concentration 1000” value [7] was 7 and the “interaction data at Target Concentration 1000” value [8] was 29.

With “DPAFEVCQFAAATCSSN (linker 7-14 via Phenylene(1,4-NHCOCH2)2 (inferred))” the “interaction data, BLANK” value [1] was 0, the “interaction data, BLANK” value [2] was 0 and the “interaction data at Target Concentration 10” value [3] was 0. The “interaction data at Target Concentration 30” value [4] was 0, the “interaction data at Target Concentration 100” value [5] was 8 and the “interaction data at Target Concentration 300” value [6] was 10. The “interaction data at Target Concentration 1000” value [7] was 6 and the “interaction data at Target Concentration 1000” value [8] was 30.

With “PCWDAWMLCTD (linker 2-9 via Phenylene(1,4-NHCOCH2)2 (inferred))” the “interaction data at Target Concentration 10” value [9] was 19, the “interaction data at Target Concentration 30” value [10] was 142 and the “interaction data at Target Concentration 100” value [11] was 542. For the same sequence, the “interaction data at Target Concentration 300” value [12] was 632, the “interaction data at Target Concentration 1000” value [13] was 701 and the “interaction data at Target Concentration 1000” value [14] was 581.

In the case of “DPAFEYCQWAAATCQMD (linker 7-14 via Phenylene(1,4-NHCOCH2)2 (inferred))”, the “interaction data, BLANK” value [1] is reported as 0, the “interaction data, BLANK” value [2] is reported as 0 and the “interaction data at Target Concentration 10” value [3] is reported as 0. The “interaction data at Target Concentration 30” value [4] was 12, the “interaction data at Target Concentration 100” value [5] was 0 and the “interaction data at Target Concentration 300” value [6] was 43. For the same sequence, the “interaction data at Target Concentration 1000” value [7] was 46 and the “interaction data at Target Concentration 1000” value [8] was 90.

In the case of “PCFEAWVMCEI (linker 2-9 via Phenylene(1,4-NHCOCH2)2 (inferred))”, the “interaction data at Target Concentration 10” value [9] is reported as 4, the “interaction data at Target Concentration 30” value [10] is reported as 83 and the “interaction data at Target Concentration 100” value [11] is reported as 121. The “interaction data at Target Concentration 300” value [12] was 285, the “interaction data at Target Concentration 1000” value [13] was 375 and the “interaction data at Target Concentration 1000” value [14] was 297.

“DPAVHNCSQAASICDVD (linker 7-14 via Phenylene(1,4-NHCOCH2)2 (inferred); not fully specified (C-terminus))” was tested, and the “interaction data, BLANK” value [1] was 0, the “interaction data, BLANK” value [2] was 0 and the “interaction data at Target Concentration 10” value [3] was 0. For the same sequence, the “interaction data at Target Concentration 30” value [4] was 0, the “interaction data at Target Concentration 100” value [5] was 0 and the “interaction data at Target Concentration 300” value [6] was 22. The “interaction data at Target Concentration 1000” value [7] was 9 and the “interaction data at Target Concentration 1000” value [8] was 39.

“ICWAAWVSCS (linker 2-9 via Phenylene(1,4-NHCOCH2)2 (inferred))” was tested, and the “interaction data at Target Concentration 10” value [9] was 0, the “interaction data at Target Concentration 30” value [10] was 0 and the “interaction data at Target Concentration 100” value [11] was 0. The “interaction data at Target Concentration 300” value [12] was 25, the “interaction data at Target Concentration 1000” value [13] was 42 and the “interaction data at Target Concentration 1000” value [14] was 17.

In the case of “PCWNAWLYCSN (linker 2-9 via Phenylene(1,4-NHCOCH2)2 (inferred))”, the “interaction data at Target Concentration 10” value [9] is reported as 0, the “interaction data at Target Concentration 30” value [10] is reported as 0 and the “interaction data at Target Concentration 100” value [11] is reported as 11. The “interaction data at Target Concentration 300” value [12] was 105, the “interaction data at Target Concentration 1000” value [13] was 155 and the “interaction data at Target Concentration 1000” value [14] was 58.
